The results in this text go back to patent publication US7090848.

Targets include CCR1 (UniProt P32246); CCR5 (UniProt P51681); CCR4 (UniProt P51679); CCR3 (UniProt P51677); CXCR4 (UniProt P61073).
Experiment in all cases: cell-based or functional assay

UniProt P51677, sequence (P51677 whole entry): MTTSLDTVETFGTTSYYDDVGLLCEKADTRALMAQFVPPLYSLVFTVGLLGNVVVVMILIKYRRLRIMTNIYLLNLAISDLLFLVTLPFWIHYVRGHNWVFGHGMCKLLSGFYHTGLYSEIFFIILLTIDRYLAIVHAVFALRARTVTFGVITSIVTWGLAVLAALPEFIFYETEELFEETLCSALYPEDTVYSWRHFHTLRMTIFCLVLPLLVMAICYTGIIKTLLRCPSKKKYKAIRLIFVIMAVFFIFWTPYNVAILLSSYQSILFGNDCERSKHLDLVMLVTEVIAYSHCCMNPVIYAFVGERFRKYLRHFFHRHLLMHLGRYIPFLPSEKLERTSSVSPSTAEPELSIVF
UniProt P32246, sequence (P32246 whole entry): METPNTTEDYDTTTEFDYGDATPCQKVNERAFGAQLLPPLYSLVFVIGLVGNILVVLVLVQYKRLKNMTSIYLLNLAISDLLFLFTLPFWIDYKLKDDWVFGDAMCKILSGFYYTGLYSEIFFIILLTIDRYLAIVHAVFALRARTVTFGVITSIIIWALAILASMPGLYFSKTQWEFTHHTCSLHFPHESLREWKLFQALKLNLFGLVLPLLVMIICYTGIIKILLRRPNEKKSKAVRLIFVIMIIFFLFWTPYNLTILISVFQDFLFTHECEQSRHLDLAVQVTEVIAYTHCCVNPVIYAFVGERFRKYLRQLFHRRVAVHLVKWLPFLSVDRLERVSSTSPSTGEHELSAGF
UniProt P51681, sequence (P51681 whole entry): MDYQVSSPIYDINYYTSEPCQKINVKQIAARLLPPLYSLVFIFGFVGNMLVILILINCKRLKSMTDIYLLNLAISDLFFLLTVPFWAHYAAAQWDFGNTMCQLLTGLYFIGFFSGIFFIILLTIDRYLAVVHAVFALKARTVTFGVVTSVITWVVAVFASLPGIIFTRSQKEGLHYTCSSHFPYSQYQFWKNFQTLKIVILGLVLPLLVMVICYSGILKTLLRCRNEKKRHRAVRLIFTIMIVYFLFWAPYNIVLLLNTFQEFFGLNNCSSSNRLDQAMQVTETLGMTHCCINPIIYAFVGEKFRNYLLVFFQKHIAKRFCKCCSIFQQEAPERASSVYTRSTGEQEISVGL
UniProt P51679, sequence (P51679 whole entry): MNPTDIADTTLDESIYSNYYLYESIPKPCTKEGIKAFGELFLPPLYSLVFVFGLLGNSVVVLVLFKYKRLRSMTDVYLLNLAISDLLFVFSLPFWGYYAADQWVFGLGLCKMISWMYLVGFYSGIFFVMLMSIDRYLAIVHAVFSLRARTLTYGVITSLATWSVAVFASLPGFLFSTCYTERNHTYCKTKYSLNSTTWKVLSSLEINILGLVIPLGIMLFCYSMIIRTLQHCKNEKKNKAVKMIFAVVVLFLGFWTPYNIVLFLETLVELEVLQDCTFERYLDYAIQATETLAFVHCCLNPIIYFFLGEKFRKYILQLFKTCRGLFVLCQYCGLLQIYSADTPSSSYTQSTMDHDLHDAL
UniProt P61073, sequence (P61073 whole entry): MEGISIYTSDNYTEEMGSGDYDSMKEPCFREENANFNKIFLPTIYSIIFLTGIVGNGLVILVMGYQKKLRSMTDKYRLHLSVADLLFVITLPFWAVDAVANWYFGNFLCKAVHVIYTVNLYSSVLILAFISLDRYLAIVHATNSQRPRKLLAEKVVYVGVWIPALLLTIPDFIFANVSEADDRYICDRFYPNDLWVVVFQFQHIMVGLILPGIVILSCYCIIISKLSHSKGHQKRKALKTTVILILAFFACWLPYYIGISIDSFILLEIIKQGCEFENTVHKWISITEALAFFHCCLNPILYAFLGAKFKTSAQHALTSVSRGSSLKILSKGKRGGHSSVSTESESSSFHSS

For HIV-1 NL4-3 envelope, the Infectivity Titer In HOS-CD4 Cells Expressing CCR1 with CCR1 is < 4 titer (1:x). In addition, the Infectivity Titer In HOS-CD4 Cells Expressing CCR5 with CCR5 was 32 titer (1:x). Also, the Infectivity Titer In HOS-CD4 Cells Expressing CCR4 with CCR4 was < 4 titer (1:x). For the same substance, the Infectivity Titer In HOS-CD4 Cells Expressing CCR3 in the assay with CCR3 was < 4 titer (1:x). The Infectivity Titer In HOS-CD4 Cells Expressing CXCR4 in the assay with CXCR4 is > 256 titer (1:x).

Regarding HIV-1 AD8 envelope, the Infectivity Titer In HOS-CD4 Cells Expressing CCR1 with CCR1 was < 4 titer (1:x). In the assay with CCR5, the Infectivity Titer In HOS-CD4 Cells Expressing CCR5 is 256 titer (1:x). For the same substance, in the assay with CCR4, the Infectivity Titer In HOS-CD4 Cells Expressing CCR4 is < 4 titer (1:x). In addition, the Infectivity Titer In HOS-CD4 Cells Expressing CCR3 with CCR3 was < 4 titer (1:x). Besides, in the assay with CXCR4, the Infectivity Titer In HOS-CD4 Cells Expressing CXCR4 is < 4 titer (1:x).
